Experimental data: patent US20150202223A1 (GENERAL HOSPITAL, published 2015)

T1: STING-HA (Sting cDNA with a C-terminal HA tag, stably expressed in p53-/- MEFs) (mouse, UniProt Q3TBT3 1-378)
T1 construct: not shown: C-terminal HA tag added by PCR
T1 sequence (looked up): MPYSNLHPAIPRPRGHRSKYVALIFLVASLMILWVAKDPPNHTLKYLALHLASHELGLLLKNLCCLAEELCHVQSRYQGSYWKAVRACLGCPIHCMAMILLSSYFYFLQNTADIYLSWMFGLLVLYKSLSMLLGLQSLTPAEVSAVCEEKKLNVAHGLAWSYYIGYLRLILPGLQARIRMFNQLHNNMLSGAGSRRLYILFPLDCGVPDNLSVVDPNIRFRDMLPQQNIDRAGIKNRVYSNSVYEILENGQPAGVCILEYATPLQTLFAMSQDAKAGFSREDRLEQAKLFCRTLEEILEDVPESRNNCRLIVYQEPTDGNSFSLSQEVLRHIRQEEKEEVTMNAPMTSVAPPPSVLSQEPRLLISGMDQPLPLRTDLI


Molecular target: T1, STING-HA (Sting cDNA with a C-terminal …)
Experiment: anti-HA immunoprecipitation of STING-HA from MEF lysate, SILAC mass spectrometry
Procedure: Light (L) and heavy (H) isotope-labeled p53−/− MEFs mock infected (L) or stably expressing Sting-HA (H) were stimulated with 1000 U/mL IFNβ for 18 h. H cells were transfected with ISD for 2.5 h. Cells were lysed in 0.2% NP-40 buffer (above), and insoluble proteins were removed by centrifugation. 18 mg of each lysate was mixed with 1 ug/mL anti-HA antibody and Protein G beads (Pierce), and rotated for 2.5 h at 4° C. Beads were pelleted and washed extensively with wash buffer (above). The two samples were mixed, cysteines were reduced by DTT and alkylated with iodoacetamide, and proteins were eluted by heating in SDS sample buffer (Life Technologies) for 10 min before separation on a 4-12% gradient gel. The whole gel lane was cut into 8 slices, proteins were digested inside the gel with trypsin, and peptides were extracted from the gel as described4. Extracted peptides were purified with StageTips5 and analyzed with a 100 min acquisition method on a Thermo EASY-nLC 1000 UHPLC coupled to a Q Exactive mass spectrometer. […] All proteins were identified with at least 2 or more unique peptides and quantified with 3 or more ratios. […] To identify significant interactions, P-values were calculated via Gaussian modeling of the log(H/L) data, and proteins with P<0.05 were designated as candidates for siRNA screening.

Binder | binding result
HMGB2 (other, mouse, UniProt P30681 1-210, looked up, Endogenous protein co-precipitated from MEF lysates) MGKGDPNKPRGKMSSYAFFVQTCREEHKKKHPDSSVNFAEFSKKCSERWKTMSAKEKSKFEDLAKSDKARYDREMKNYVPPKGDKKGKKKDPNAPKRPPSAFFLFCSENRPKIKIEHPGLSIGDTAKKLGEMWSEQSAKDKQPYEQKAAKLKEKYEKDIAAYRAKGKSEAGKKGPGRPTGSKKKNEPEDEEEEEEEEEEEDDEEEEEDEE | no binding
ANP32A (other, mouse, UniProt O35381 1-247, looked up, Endogenous protein co-precipitated from MEF lysates) MEMDKRIYLELRNRTPSDVKELVLDNCKSIEGKIEGLTDEFEELEFLSTINVGLTSISNLPKLNKLKKLELSENRISGDLEVLAEKCPNLKHLNLSGNKIKDLSTIEPLKKLENLKSLDLFNCEVTNLNAYRENVFKLLPQVMYLDGYDRDNKEAPDSDVEGYVEDDDEEDEDEEEYDEYAQLVEDEEEEDEEEEGEEEDVSGEEEEDEEGYNDGEVDDEEDEEEAGEEEGSQKRKREPDDEGEEDD | no binding
